According to publication PMC9181312:

Target: Human ACE2-hIgG1Fc (human) (UniProt Q9BYF1)
Assay: SPR

Human ACE2-hIgG1Fc (human), sequence (Q9BYF1 18-740): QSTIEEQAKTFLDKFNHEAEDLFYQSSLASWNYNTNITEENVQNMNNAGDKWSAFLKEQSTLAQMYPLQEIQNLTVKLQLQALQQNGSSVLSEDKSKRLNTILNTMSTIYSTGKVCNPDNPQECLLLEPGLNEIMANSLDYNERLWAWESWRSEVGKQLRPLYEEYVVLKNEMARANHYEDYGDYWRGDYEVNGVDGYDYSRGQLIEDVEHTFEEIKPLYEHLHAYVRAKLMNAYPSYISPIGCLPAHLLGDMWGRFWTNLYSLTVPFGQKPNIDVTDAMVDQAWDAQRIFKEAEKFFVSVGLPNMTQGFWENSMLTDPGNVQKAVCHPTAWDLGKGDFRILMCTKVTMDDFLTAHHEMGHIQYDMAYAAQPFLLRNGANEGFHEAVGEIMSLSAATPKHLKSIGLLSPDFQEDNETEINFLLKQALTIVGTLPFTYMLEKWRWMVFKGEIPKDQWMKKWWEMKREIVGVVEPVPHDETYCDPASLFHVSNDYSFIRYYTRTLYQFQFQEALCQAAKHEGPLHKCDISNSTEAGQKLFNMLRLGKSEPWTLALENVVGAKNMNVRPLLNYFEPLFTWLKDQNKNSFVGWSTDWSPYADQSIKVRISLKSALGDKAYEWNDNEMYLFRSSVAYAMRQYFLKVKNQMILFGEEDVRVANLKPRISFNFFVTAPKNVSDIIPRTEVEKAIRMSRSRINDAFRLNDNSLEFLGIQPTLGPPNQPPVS

Substance Wuhan RBD has a Kd of 7.3 nM and a koff of 0.0051 s⁻¹.
